Consider two molecules from PMC10951424, “Fibroblast-specific PRMT5 deficiency suppresses cardiac fibrosis and left ventricular dysfunction in male mice” (Nature Communications, 2024).

The assay concerns the target T1, His-tag fusion human PRMT5 protein (human, UniProt O14744 1-637).
T1 construct: Protein arginine methyltransferase 5 (PRMT5), human; also called His-tagged PRMT5; his-tagged PRMT5; source: E. coli BL21DE3, recombinant; not shown: His-tag, N-terminal, kept
The assay is described as follows: pull-down; GST fusion proteins immobilized on glutathione-Sepharose 4B beads, mixed with His-tag fusion human PRMT5; 4 °C, 2 h; beads washed four times; western blot with anti-His-tag mAb. The following applies: both partners purified.

T1 sequence (O14744 whole entry, the tested form may be a part): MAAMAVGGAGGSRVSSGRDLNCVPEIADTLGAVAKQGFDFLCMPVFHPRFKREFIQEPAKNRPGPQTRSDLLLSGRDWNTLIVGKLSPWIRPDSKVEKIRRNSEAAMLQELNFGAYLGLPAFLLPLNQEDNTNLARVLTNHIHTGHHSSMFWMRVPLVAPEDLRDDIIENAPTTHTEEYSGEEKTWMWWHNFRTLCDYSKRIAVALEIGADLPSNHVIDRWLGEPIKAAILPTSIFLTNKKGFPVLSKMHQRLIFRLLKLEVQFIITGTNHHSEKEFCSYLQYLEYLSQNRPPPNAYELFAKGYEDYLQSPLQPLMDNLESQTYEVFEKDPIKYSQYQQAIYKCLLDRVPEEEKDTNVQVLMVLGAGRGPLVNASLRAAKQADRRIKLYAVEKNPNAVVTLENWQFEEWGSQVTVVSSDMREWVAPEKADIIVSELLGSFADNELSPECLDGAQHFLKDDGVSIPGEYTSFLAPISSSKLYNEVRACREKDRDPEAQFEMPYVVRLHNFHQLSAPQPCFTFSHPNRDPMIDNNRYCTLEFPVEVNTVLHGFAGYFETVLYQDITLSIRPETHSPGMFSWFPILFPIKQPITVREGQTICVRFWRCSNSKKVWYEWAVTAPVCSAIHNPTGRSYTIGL

B1: recombinant full-length GST-Smad3 (natural protein, human, UniProt P84022 1-425, looked up)
chain: MSSILPFTPPIVKRLLGWKKGEQNGQEEKWCEKAVKSLVKKLKKTGQLDELEKAITTQNVNTKCITIPRSLDGRLQVSHRKGLPHVIYCRLWRWPDLHSHHELRAMELCEFAFNMKKDEVCVNPYHYQRVETPVLPPVLVPRHTEIPAEFPPLDDYSHSIPENTNFPAGIEPQSNIPETPPPGYLSEDGETSDHQMNHSMDAGSPNLSPNPMSPAHNNLDLQPVTYCEPAFWCSISYYELNQRVGETFHASQPSMTVDGFTDPSNSERFCLGLLSNVNRNAAVELTRRHIGRGVRLYYIGGEVFAECLSDSAIFVQSPNCNQRYGWHPATVCKIPPGCNLKIFNNQEFAALLAQSVNQGFEAVYQLTRMCTIRMSFVKGWGAEYRRQTVTSTPCWIELHLNGPLQWLDKVLTQMGSPSIRCSSVS
notes: Smad3, full length; the only Smad3 cDNA named is the pCMV Flag hSmad3 vector (human); The methods tell the cloning into pGEX6P1 only for the deletion mutants; the full-length GST construct is not described; also called GST-tagged Smad3; source: E. coli BL21DE3, recombinant, immobilized on glutathione-Sepharose 4B beads
B1: the binding result is “binds”.

B2: GST-Smad3 deletion mutant aa 225-425 (domain or fragment)
chain: not shown
notes: PCR product cloned into pGEX6P1 (BamHI, XhoI); cDNA from the pCMV Flag hSmad3 vector (human); source: E. coli BL21DE3, recombinant, immobilized on glutathione-Sepharose 4B beads
With B2, the binding result is “binds”.
